Primed or numbered codes have the meaning given here. No end group written: not given here. FITC′ = fluorescein isothiocyanate (fluorescent probe)
How the values were obtained:
[1] = target: T1, LIMP-2 in Gba1-/- fibroblasts (endogenous, detected by anti-LIMP2 immunofluorescence) (UniProt O35114 1-478, limits assumed); test: cell-based or functional assay
T1 sequence (looked up): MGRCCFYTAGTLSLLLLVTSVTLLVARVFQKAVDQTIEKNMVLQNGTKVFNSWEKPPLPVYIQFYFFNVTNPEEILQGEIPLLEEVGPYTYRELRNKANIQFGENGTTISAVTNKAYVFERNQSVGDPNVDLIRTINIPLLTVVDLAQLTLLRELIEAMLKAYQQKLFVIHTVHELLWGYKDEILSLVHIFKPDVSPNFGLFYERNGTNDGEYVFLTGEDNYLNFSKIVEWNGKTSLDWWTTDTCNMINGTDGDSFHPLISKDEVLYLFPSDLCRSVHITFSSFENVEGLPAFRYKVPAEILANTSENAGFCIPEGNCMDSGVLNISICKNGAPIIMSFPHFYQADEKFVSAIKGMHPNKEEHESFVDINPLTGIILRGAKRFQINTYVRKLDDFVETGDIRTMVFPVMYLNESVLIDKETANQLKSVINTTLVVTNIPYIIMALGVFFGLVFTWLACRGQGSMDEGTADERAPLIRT

[2] = target: T2, Purified luminal domain LIMP-2 (ld-LIMP2) (UniProt Q14108 28-433, limits assumed); test: in vitro immunoprecipitation of purified GCase with ldLIMP-2 (1:1) on anti-LIMP2 beads, immunoblot (FIG. 6B)
T2 construct: domain: luminal domain; also called LIMP-2/SCARB2
T2 sequence (looked up): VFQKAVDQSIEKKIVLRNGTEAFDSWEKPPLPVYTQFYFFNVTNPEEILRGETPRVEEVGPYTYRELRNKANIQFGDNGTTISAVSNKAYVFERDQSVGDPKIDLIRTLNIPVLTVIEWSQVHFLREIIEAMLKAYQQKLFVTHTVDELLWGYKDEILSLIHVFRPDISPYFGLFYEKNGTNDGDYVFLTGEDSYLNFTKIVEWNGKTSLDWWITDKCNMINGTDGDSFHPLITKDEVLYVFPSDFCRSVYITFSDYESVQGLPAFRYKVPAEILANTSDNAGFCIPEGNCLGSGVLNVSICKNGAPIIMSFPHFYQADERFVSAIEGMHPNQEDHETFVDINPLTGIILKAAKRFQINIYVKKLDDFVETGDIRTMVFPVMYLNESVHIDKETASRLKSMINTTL
Source text: Immunoprecipitation of GCases with mutations in the TKD sequence: For immunoblots, Gba1 knockout mouse fibroblasts (null/null) were transfected with the GBA1 constructs (WT or mutants) and expressed for 5 days. The GCases from harvested cell lysates were purified using a GCase antibody affinity column (Dynabeads protein G crosslinked (BS3) with rabbit anti-human GCase antibody). […] Aliquots of each step (loading, wash and eluent) were collected and analyzed on 12.5% SDS gels. Immunoblots were developed using anti-human GCase antibody and AP conjugated color development kits. Mock experiments with either non-LIMP2 proteins added or no GCases added, were used as control. The quantitations of these immunoprecipitation data were obtained from densitometry measurements of the gels. The no-LIMP-2 bars are the controls for comparison, since GCase was processed through all steps without LIMP-2 to account for any losses of GCase; About 50% of the GCase was lost during processing.

[3] = target: T2, Purified luminal domain LIMP-2 …; test: peptide binding to ldLIMP-2 at pH 6.8 (FIG. 9)
[4] = target: T2, Purified luminal domain LIMP-2 …; test: peptide binding to ldLIMP2 at pH 6.8 (FIG. 9)
[5] = target: T2, Purified luminal domain LIMP-2 …; test: fluorescence polarization, FITC peptide titrated, ldLIMP2 fixed at 50 nM (FIG. 7A)
Description: FIG. 7A-FIG. 7C: Binding and competition of fluorescent labeled or unlabeled DSPIIV (SEQ ID NO 15) GCase peptides to ldLIMP2. The change (δmP) in fluorescence polarization is plotted on the ordinate and the increasing concentrations of the various peptides are on the abscissa. FIG. 7A depicts saturation kinetics under conditions in which the concentration of ldLIMP2 (50 nM) was fixed. […] FIG. 7B depicts a similar study using unlabeled peptides as competitors. […] Each of the unlabeled peptides “competed” with the labeled peptides in the expected ratios. FIG. 7C depicts a competition study in which labeled (WT*) and unlabeled (WT) peptides were used in complementary competition studies.
Fluorescence Polarization: The DSPIIV (SEQ ID NO 15) and its mutants, and DDQRLLL (SEQ ID NO 14) peptides (FITC labeled or non-labeled) were synthesized (American Peptide Co., Vista, Calif.). Lyophilized peptides were solubilized in acetonitrile and then were diluted at least 10,000-fold into the reactions for fluorescence polarization assessments. The reactions were done at least in duplicate at various peptide and LIMP-2 concentrations (SpectraMax M5, Molecular Device). Fluorescence polarization data were collected and analyzed with SoftMax Pro 5.0 software. Reaction mixtures contained 100 mM phosphate, pH 6.8 and 1 mM DTT.

B1: ASPIIV (SEQ ID NO 16) (D399A) GCase (enzyme)
chain: ARPCIPKSFGYSSVVCVCNATYCDSFDPPTFPALGTFSRYESTRSGRRMELSMGPIQANHTGTGLLLTLQPEQKFQKVKGFGGAMTDAAALNILALSPPAQNLLLKSYFSEEGIGYNIIRVPMASCDFSIRTYTYADTPDDFQLHNFSLPEEDTKLKIPLIHRALQLAQRPVSLLASPWTSPTWLKTNGAVNGKGSLKGQPGDIYHQTWARYFVKFLDAYAEHKLQFWAVTAENEPSAGLLSGYPFQCLGFTPEHQRDFIARDLGPTLANSTHHNVRLLMLDDQRLLLPHWAKVVLTDPEAAKYVHGIAVHWYLDFLAPAKATLGETHRLFPNTMLFASEACVGSKFWEQSVRLGSWDRGMQYSHSIITNLLYHVVGWTDWNLALNPEGGPNWVRNFVASPIIVDITKDTFYKQPMFYHLGHFSKFIPEGSQRVGLVASQKNDLDAVALMHPDGSAVVVVLNRSSKDVPLTIKDPAVGFLETISPGYSIHTYLWRRQ
% Secreted [1]: 36%

B2: DSPAIV (SEQ ID NO 17) (I402A) GCase (enzyme)
chain: ARPCIPKSFGYSSVVCVCNATYCDSFDPPTFPALGTFSRYESTRSGRRMELSMGPIQANHTGTGLLLTLQPEQKFQKVKGFGGAMTDAAALNILALSPPAQNLLLKSYFSEEGIGYNIIRVPMASCDFSIRTYTYADTPDDFQLHNFSLPEEDTKLKIPLIHRALQLAQRPVSLLASPWTSPTWLKTNGAVNGKGSLKGQPGDIYHQTWARYFVKFLDAYAEHKLQFWAVTAENEPSAGLLSGYPFQCLGFTPEHQRDFIARDLGPTLANSTHHNVRLLMLDDQRLLLPHWAKVVLTDPEAAKYVHGIAVHWYLDFLAPAKATLGETHRLFPNTMLFASEACVGSKFWEQSVRLGSWDRGMQYSHSIITNLLYHVVGWTDWNLALNPEGGPNWVRNFVDSPAIVDITKDTFYKQPMFYHLGHFSKFIPEGSQRVGLVASQKNDLDAVALMHPDGSAVVVVLNRSSKDVPLTIKDPAVGFLETISPGYSIHTYLWRRQ
% Secreted [1]: 22%

B3: DSPIAV (SEQ ID NO 18) (I403A) GCase (enzyme)
chain: ARPCIPKSFGYSSVVCVCNATYCDSFDPPTFPALGTFSRYESTRSGRRMELSMGPIQANHTGTGLLLTLQPEQKFQKVKGFGGAMTDAAALNILALSPPAQNLLLKSYFSEEGIGYNIIRVPMASCDFSIRTYTYADTPDDFQLHNFSLPEEDTKLKIPLIHRALQLAQRPVSLLASPWTSPTWLKTNGAVNGKGSLKGQPGDIYHQTWARYFVKFLDAYAEHKLQFWAVTAENEPSAGLLSGYPFQCLGFTPEHQRDFIARDLGPTLANSTHHNVRLLMLDDQRLLLPHWAKVVLTDPEAAKYVHGIAVHWYLDFLAPAKATLGETHRLFPNTMLFASEACVGSKFWEQSVRLGSWDRGMQYSHSIITNLLYHVVGWTDWNLALNPEGGPNWVRNFVDSPIAVDITKDTFYKQPMFYHLGHFSKFIPEGSQRVGLVASQKNDLDAVALMHPDGSAVVVVLNRSSKDVPLTIKDPAVGFLETISPGYSIHTYLWRRQ
% Secreted [1]: 23%

B4: DSPAAV (SEQ ID NO 19) (I402A+I403A) GCase, double mutant (enzyme)
chain: ARPCIPKSFGYSSVVCVCNATYCDSFDPPTFPALGTFSRYESTRSGRRMELSMGPIQANHTGTGLLLTLQPEQKFQKVKGFGGAMTDAAALNILALSPPAQNLLLKSYFSEEGIGYNIIRVPMASCDFSIRTYTYADTPDDFQLHNFSLPEEDTKLKIPLIHRALQLAQRPVSLLASPWTSPTWLKTNGAVNGKGSLKGQPGDIYHQTWARYFVKFLDAYAEHKLQFWAVTAENEPSAGLLSGYPFQCLGFTPEHQRDFIARDLGPTLANSTHHNVRLLMLDDQRLLLPHWAKVVLTDPEAAKYVHGIAVHWYLDFLAPAKATLGETHRLFPNTMLFASEACVGSKFWEQSVRLGSWDRGMQYSHSIITNLLYHVVGWTDWNLALNPEGGPNWVRNFVDSPAAVDITKDTFYKQPMFYHLGHFSKFIPEGSQRVGLVASQKNDLDAVALMHPDGSAVVVVLNRSSKDVPLTIKDPAVGFLETISPGYSIHTYLWRRQ
% Secreted [1]: 83%

B5: AAA GCase (triple alanine mutant in the TKD sequence, amino acids 407-409) (enzyme)
chain: ARPCIPKSFGYSSVVCVCNATYCDSFDPPTFPALGTFSRYESTRSGRRMELSMGPIQANHTGTGLLLTLQPEQKFQKVKGFGGAMTDAAALNILALSPPAQNLLLKSYFSEEGIGYNIIRVPMASCDFSIRTYTYADTPDDFQLHNFSLPEEDTKLKIPLIHRALQLAQRPVSLLASPWTSPTWLKTNGAVNGKGSLKGQPGDIYHQTWARYFVKFLDAYAEHKLQFWAVTAENEPSAGLLSGYPFQCLGFTPEHQRDFIARDLGPTLANSTHHNVRLLMLDDQRLLLPHWAKVVLTDPEAAKYVHGIAVHWYLDFLAPAKATLGETHRLFPNTMLFASEACVGSKFWEQSVRLGSWDRGMQYSHSIITNLLYHVVGWTDWNLALNPEGGPNWVRNFVDSPIIVDIAAATFYKQPMFYHLGHFSKFIPEGSQRVGLVASQKNDLDAVALMHPDGSAVVVVLNRSSKDVPLTIKDPAVGFLETISPGYSIHTYLWRRQ
notes: Made from full length pCMV-GCase-GFP or YFP vectors; also called AAA mutant
binding result [2]: no binding

B6: ASPAAV peptide (triple mutant: alanines for D399, I402 and I403), FITC labeled (peptide)
peptide: ASPAAV-{FITC′}
notes: also called ASPAAP
percent decrease in binding [3]: ~90%
binding relative to WT [4]: < 10 % of WT

B7: DSPIIV (SEQ ID NO 15) GCase peptide, FITC labeled (peptide)
peptide: DSPIIV-{FITC′}
notes: also called WT peptide; WT*
EC50 [5]: ~50 nM

— patent US20160237414A1 (CHILDREN S HOSPITAL MEDICAL CENTER, published 2016)
